Tests used:
CYT-18 NTDs = target: T1, CYT-18 NTDs (Neurospora crassa, UniProt P12063 33-417); assay: filter binding; 25C; 100 mM KCl, 5 mM MgCl2, 20 mM Tris-HCl pH 7.5, 5 mM DTT, 0.1 mg/ml BSA, 10% glycerol, 5 pM RNA, 30 min, 25C or 37C; nitrocellulose/nylon filter; settings: protein: recombinant; tags: N-terminal 6xHis, TEV-cleaved; extra N-terminal Gly; chain copies: 2; label: 5'-32P
T1 sequence: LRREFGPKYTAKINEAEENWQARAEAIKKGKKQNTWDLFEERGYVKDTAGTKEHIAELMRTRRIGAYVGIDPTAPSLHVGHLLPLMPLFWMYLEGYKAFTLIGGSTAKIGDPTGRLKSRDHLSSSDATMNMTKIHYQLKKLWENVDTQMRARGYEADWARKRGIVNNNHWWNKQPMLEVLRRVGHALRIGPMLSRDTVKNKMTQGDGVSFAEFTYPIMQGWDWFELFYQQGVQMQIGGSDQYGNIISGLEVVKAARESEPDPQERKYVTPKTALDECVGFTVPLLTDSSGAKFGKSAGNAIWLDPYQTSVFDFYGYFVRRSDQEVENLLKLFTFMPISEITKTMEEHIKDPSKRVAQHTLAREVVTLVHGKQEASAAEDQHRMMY

Sc CTD = target: T2, Sc CTD (Saccharomyces cerevisiae, UniProt P48527 414-492); assay: filter binding; 25C; n=1.6; 100 mM KCl, 5 mM MgCl2, 20 mM Tris-HCl pH 7.5, 5 mM DTT, 0.1 mg/ml BSA, 10% glycerol, 5 pM RNA, 30 min, 25C or 37C; nitrocellulose/nylon filter; settings: protein: recombinant; label: 5'-32P
T2 sequence: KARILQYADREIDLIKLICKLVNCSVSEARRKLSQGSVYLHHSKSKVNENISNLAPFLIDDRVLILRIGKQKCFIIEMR

Binder: UUUUUUUUUUUUUUUUUUUUUUUUUUUUUU (ssRNA) [poly(U)30]
- binding result (CYT-18 NTDs): no binding
- apparent K (half saturation) (Sc CTD): 1000 nM
